B1: GST-Rad27 (natural protein, yeast, UniProt P26793 1-382, looked up)
chain: MGIKGLNAIISEHVPSAIRKSDIKSFFGRKVAIDASMSLYQFLIAVRQQDGGQLTNEAGETTSHLMGMFYRTLRMIDNGIKPCYVFDGKPPDLKSHELTKRSSRRVETEKKLAEATTELEKMKQERRLVKVSKEHNEEAQKLLGLMGIPYIIAPTEAEAQCAELAKKGKVYAAASEDMDTLCYRTPFLLRHLTFSEAKKEPIHEIDTELVLRGLDLTIEQFVDLCIMLGCDYCESIRGVGPVTALKLIKTHGSIEKIVEFIESGESNNTKWKIPEDWPYKQARMLFLDPEVIDGNEINLKWSPPKEKELIEYLCDDKKFSEERVKSGISRLKKGLKSGIQGRLDGFFQVVPKTKEQLAAAAKRAQENKKLNKNKNKVTKGRR

Assay in all cases: cell-based or functional assay
For experiment [1], the target named is T1, Mus81_(Δ21–24) of Mus81_(Δ21–24)–Mms4_(Δ40N) (S. cerevisiae, UniProt Q04149 1-632, Δ21–24).
T1 sequence (looked up): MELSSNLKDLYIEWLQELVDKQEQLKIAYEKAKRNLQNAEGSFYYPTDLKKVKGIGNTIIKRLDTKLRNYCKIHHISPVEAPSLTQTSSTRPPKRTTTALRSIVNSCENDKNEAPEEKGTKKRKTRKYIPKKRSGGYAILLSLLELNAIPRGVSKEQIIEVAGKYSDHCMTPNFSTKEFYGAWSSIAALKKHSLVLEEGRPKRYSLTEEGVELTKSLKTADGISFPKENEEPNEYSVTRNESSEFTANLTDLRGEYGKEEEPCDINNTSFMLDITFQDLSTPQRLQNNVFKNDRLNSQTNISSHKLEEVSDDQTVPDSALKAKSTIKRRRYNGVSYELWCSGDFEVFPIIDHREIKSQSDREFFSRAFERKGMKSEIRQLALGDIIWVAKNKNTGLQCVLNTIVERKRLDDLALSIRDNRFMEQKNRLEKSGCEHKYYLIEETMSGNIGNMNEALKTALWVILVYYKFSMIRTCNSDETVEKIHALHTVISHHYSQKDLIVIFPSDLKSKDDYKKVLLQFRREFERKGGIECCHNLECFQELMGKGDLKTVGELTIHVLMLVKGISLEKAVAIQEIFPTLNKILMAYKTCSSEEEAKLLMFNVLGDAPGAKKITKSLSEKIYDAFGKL

For experiment [2], the target named is T2, Mus81_(Δ21–22) of Mus81_(Δ21–22)–Mms4_(Δ40N) (S. cerevisiae, UniProt Q04149 1-632, Δ21–22).
T2 sequence (looked up): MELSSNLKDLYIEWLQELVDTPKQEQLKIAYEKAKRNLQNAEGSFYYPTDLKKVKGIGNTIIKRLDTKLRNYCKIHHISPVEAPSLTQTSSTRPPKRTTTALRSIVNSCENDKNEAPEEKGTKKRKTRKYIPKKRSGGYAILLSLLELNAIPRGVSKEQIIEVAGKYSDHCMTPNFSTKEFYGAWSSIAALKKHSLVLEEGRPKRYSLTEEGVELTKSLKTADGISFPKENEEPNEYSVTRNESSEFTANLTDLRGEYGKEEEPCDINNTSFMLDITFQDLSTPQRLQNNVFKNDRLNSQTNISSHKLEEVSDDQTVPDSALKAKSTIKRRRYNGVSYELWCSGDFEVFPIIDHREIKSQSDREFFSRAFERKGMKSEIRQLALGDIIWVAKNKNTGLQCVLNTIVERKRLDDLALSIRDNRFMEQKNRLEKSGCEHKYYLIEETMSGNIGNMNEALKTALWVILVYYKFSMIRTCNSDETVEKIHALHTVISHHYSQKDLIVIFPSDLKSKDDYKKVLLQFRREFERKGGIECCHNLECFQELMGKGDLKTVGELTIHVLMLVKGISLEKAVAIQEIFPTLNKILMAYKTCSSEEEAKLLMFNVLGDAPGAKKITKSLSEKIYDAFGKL

Experiment [3] deals with B1.

Regarding B1, the “extent of stimulation by Rad27 of the endonuclease activity of Mus81_(Δ21–24)–Mms4_(Δ40N) on 3′F substrate, over increasing amounts of Rad27 (∼3–6-fold)” value in experiment [1] is roughly 6 fold. For the same molecule, in experiment [2], the “extent of stimulation by Rad27 of the endonuclease activity of Mus81_(Δ21–22)–Mms4_(Δ40N) on 3′F substrate, over increasing amounts of Rad27 (∼5–12-fold)” value is roughly 12 fold.

B2: Mms4_(Δ40N) (domain or fragment, budding yeast, UniProt P38257 41-691, looked up)
chain: ECKRAHVSSAEMIPSSPQRKSVSNDVENVDLNKSIELSAPFFQDISISKLDDFSTTVNSIIDSSLRNENNAKGNAKKLLDDLISDEWSADLESSGKKHNKSQYNLRDIAEKWGVQSLKNPEPIAVDCEYKTQGIGKTNSDISDSPKSQIGAADILFDFPLSPVKHENPTEEKHNSIANENSSPDNSLKPAGKQNHGEDGTSMAKRVYNKGEDEQEHLPKGKKRTIALSRTLINSTKLPDTVELNLSKFLDSSDSITTDVLSTPAKGSNIVRTGSQPIFSNANCFQEAKRSKTLTAEDPKCTKNTAREVSQLENYIAYGQYYTREDSKNKIRHLLKENKNAFKRVNQIYRDNIKARSQMIIEFSPSLLQLFKKGDSDLQQQLAPAVVQSSYNDSMPLLRFLRKCDSIYDFSNDFYYPCDPKIVEENVLILYYDAQEFFEQYTSQKKELYRKIRFFSKNGKHVILILSDINKLKRAIFQLENEKYKARVEQRLSGTEEALRPRSKKSSQVGKLGIKKFDLEQRLRFIDREWHVKIHTVNSHMEFINSLPNLVSLIGKQRMDPAIRYMKYAHLNVKSAQDSTETLKKTFHQIGRMPEMKANNVVSLYPSFQSLLEDIEKGRLQSDNEGKYLMTEAVEKRLYKLFTCTDPNDTIE
With B2, the “stimulation of Rad27 (0.1 fmol) cleavage of 5′DF substrate by the Mus81–Mms4_(Δ40N) and Mus81_(Δ120N)–Mms4_(Δ40N) complexes (0, 25, 50 fmol; ∼2–4 fold told of the Mus81 complexes)” value in experiment [3] is 2 to 4 fold.

B3: Mms4 of the wild-type Mus81–Mms4 complex (natural protein, budding yeast, UniProt P38257 1-691, looked up)
chain: MSQIVDFVEDKDSRNDASIQIIDGPSNVEIIALSESMDQDECKRAHVSSAEMIPSSPQRKSVSNDVENVDLNKSIELSAPFFQDISISKLDDFSTTVNSIIDSSLRNENNAKGNAKKLLDDLISDEWSADLESSGKKHNKSQYNLRDIAEKWGVQSLKNPEPIAVDCEYKTQGIGKTNSDISDSPKSQIGAADILFDFPLSPVKHENPTEEKHNSIANENSSPDNSLKPAGKQNHGEDGTSMAKRVYNKGEDEQEHLPKGKKRTIALSRTLINSTKLPDTVELNLSKFLDSSDSITTDVLSTPAKGSNIVRTGSQPIFSNANCFQEAKRSKTLTAEDPKCTKNTAREVSQLENYIAYGQYYTREDSKNKIRHLLKENKNAFKRVNQIYRDNIKARSQMIIEFSPSLLQLFKKGDSDLQQQLAPAVVQSSYNDSMPLLRFLRKCDSIYDFSNDFYYPCDPKIVEENVLILYYDAQEFFEQYTSQKKELYRKIRFFSKNGKHVILILSDINKLKRAIFQLENEKYKARVEQRLSGTEEALRPRSKKSSQVGKLGIKKFDLEQRLRFIDREWHVKIHTVNSHMEFINSLPNLVSLIGKQRMDPAIRYMKYAHLNVKSAQDSTETLKKTFHQIGRMPEMKANNVVSLYPSFQSLLEDIEKGRLQSDNEGKYLMTEAVEKRLYKLFTCTDPNDTIE
In the case of B3, in experiment [3], the “stimulation of Rad27 (0.1 fmol) cleavage of 5′DF substrate by the Mus81–Mms4 complex (0, 25, 50 fmol; ∼2–4 fold told of the Mus81 complexes)” value fell in the range of 2 to 4 fold.
